Results as given in the Human Domainome abundance scans (Beltran et al. 2025).

B1: Formin-binding protein 4, residues 200 to 261; numbered along this chain, Q8N3X1 (parent)
chain: SGWQYDTQCSLAGVGIEMGDWQEVWDENTGCYYYWNTQTNEVTWELPQYLATQVQGLQHYQP

Variants of: B1
Assay: abundance fitness (aPCA) (normalised: wild type 0, dead -1); higher = more abundant; growth selection in yeast, the domain comes from the species named
Conditions: Homo sapiens

Abundance fitness of substitutions, site by site:
C31: Y -0.063; E -0.422; Q -0.038; K 0.066; V -0.129; L -0.183; H -0.017; R 0.165; F 0.083; G -0.125; N 0.107; T -0.094; A 0.01; I -0.326; S 0.031; P -0.742; M -0.127; W -0.662
T37: K 0.09; E -0.297; H -0.009; F -0.151; V -0.058; G -0.135; L -0.133; N -0.166; I -0.022; S 0.019; R -0.111; D -0.171; C 0.089; Y -0.243; A 0.061; Q 0.01
E27: M -0.381; P -0.349; N -0.127; T -0.199; R -0.112; V -0.373; A 0.043; W -0.601; Q -0.168; L -0.429; G -0.066; Y -0.288; S -0.187; H 0.516; K 0.076; D 0.101; I -0.174; C -0.213; F -0.319
W35: Y -0.271; R 0.184; E 0.328; L -0.112; G -0.297; K 0.355; I 0.09; F 0.112; P -1.04; V -0.104; H 0.166; M -0.189; A 0.196; D -0.159; T 0.172; S 0.066
V42: I -0.188; C -0.242; P -0.415; L -0.202; F -0.148; W -0.457; Q 0.308; E 0.063; N -0.203; Y -0.453; R 0.095; K 0.084; S 0.02; M 0.12
Y33: W -0.52; K 0.016; D -0.706; M -0.316; L -0.477; A -0.691; C -0.213; E -0.458; R -0.201; H -0.169; Q -0.389; F -0.281; G -0.576; T -0.335; P -0.676; I -0.566; S -0.212; V -0.447
T43: L -0.092; G -0.401; F -0.34; C -0.02; Q -0.018; K -0.172; S -0.021; R -0.262; N -0.263; W -0.584; M -0.317; Y -0.332; A -0.1; E -0.053
W44: H -0.236; E 0.078; G -0.135; S -0.037; P -0.218; T -0.077; Y 0.089; I -0.503; V -0.127; D -0.429; Q -0.061; L -0.226; C -0.078; F -0.121; K 0.043; R 0.03; N 0.068; A -0.221
N28: D -0.002; S -0.151; E -0.07; V -0.507; M -0.32; L -0.233; H -0.229; K 0.108; T -0.153; C -0.022; G 0.073; I 0.281; P -0.133; W -0.291; F -0.329; Y -0.245
E45: D -0.149; A -0.213; F -0.398
T39: P -0.873; Y -0.579; H -0.34; D -0.151; N -0.093; K -0.123; I -0.354; R -0.306; F -0.577; E -0.37; A -0.411; Q -0.226; M -0.386; V -0.877; S 0.017
